Test results from PMC8497992, “Structural and functional characterization explains loss of dNTPase activity of the cancer-specific R366C/H mutant SAMHD1 proteins”.

B1: 6FAM-deoxy(C*G*C*C*T) (ssDNA)
DNA: CGCCT
modifications: * between all nucleotides (probably phosphorothioate; not defined in the material)
B2: 6FAM-ribo(C*G*C*C*U) (ssRNA)
RNA: CGCCU
modifications: * between all nucleotides (probably phosphorothioate; not defined in the material)

Experiments:
Assay in all cases: fluorescence polarization; 50 mM Tris-HCl pH 8.0, 50 mM KCl, 1 mM EDTA; 50 nM labeled oligonucleotide; temperature not stated
Settings in all cases: protein: recombinant; chain copies: 2; label: 5'-6-carboxyfluorescein; single strand
SAMHD1 HD domain WT = SAMHD1 HD domain WT (UniProt Q9Y3Z3 114-626)
SAMHD1 HD domain R366C = SAMHD1 HD domain R366C (UniProt Q9Y3Z3 114-626, R366C)
SAMHD1 HD domain R366H = SAMHD1 HD domain R366H (UniProt Q9Y3Z3 114-626, R366H)
Chain of SAMHD1 HD domain R366H (Q9Y3Z3 114-626 R366H): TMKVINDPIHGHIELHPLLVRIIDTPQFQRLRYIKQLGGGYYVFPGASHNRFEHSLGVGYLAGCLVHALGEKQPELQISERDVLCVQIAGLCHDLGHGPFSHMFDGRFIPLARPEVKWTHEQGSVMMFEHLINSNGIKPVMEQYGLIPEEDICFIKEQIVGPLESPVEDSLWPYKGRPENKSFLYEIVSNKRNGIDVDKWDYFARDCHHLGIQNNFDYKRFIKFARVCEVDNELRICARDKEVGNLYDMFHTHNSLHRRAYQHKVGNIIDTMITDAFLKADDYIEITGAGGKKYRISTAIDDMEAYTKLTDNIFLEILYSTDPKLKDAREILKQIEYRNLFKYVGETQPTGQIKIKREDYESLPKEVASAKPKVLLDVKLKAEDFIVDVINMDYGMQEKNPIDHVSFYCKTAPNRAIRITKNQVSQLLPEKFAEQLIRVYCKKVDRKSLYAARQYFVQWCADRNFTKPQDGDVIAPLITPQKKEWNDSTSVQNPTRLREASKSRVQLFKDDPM

Chain of SAMHD1 HD domain WT (Q9Y3Z3 114-626): as the sequence (Q9Y3Z3 114-626 R366H) above, with H253R counted along it
Chain of SAMHD1 HD domain R366C (Q9Y3Z3 114-626 R366C): as the sequence (Q9Y3Z3 114-626 R366H) above, with H253C counted along it

Binder	Kd (SAMHD1 HD domain WT)	Kd (SAMHD1 HD domain R366C)	Kd (SAMHD1 HD domain R366H)
B1	147 ± 8.3 nM	689 ± 39 nM	606 ± 46 nM
B2	154 ± 4.2 nM	1450 ± 51 nM	1120 ± 42 nM
